# Article PMC10786891, “Massively parallel profiling of RNA-targeting CRISPR-Cas13d”
# Changes are numbered by the printed parent chain. Numbers in names are those of the source.
# T1: EsCas13d, nuclease-dead (Eubacterium siraeum, UniProt B0MS50, R295A;H300A;R849A;H854A)
# T1 sequence: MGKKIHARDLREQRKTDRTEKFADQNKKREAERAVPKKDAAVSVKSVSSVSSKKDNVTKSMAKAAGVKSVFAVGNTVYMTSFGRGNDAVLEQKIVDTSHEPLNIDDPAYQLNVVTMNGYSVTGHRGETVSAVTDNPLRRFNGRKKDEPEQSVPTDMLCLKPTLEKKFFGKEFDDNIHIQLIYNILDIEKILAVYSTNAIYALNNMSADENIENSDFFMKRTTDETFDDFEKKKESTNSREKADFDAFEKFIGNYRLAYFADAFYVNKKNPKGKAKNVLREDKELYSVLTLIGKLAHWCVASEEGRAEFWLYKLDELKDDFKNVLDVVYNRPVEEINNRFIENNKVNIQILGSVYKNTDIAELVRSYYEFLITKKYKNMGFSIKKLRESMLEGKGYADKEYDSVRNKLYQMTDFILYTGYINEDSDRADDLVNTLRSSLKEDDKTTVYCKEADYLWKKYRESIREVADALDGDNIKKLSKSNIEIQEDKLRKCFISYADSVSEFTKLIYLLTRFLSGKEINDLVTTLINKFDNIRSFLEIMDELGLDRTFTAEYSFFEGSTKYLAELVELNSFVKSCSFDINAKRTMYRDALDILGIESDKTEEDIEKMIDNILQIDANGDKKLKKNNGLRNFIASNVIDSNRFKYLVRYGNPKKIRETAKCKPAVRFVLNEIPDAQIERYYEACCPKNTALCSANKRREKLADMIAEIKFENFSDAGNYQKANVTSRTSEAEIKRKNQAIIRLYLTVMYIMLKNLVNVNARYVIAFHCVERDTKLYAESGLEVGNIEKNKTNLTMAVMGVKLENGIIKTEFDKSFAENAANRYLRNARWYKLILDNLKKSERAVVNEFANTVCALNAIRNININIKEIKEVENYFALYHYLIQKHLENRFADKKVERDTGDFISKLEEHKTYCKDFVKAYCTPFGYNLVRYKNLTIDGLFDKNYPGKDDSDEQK
# B1: target 1 insU 3' of 17,insG 3' of 2 (mixed)
# RNA 1: CACCCGUGCAAAAAUGCAGGGGUCUAAAACUGAGCGGAUAACCUCUCUAUGG
# RNA 2: GGGAAUGGAUCCACAUCUACGAAUUCGUACCAUAGUAGAGGUUAUCCGCUCGACCGAGAUCGGAAGAGCACACGU
# B2: target 1 insA 3' of 19,insC 3' of 10 (mixed)
# RNA 1: B1 RNA 1
# RNA 2: GGGAAUGGAUCCACAUCUACGAAUUCGUACCAUAAGAGAGGUUCAUCCGCUCACCGAGAUCGGAAGAGCACACGU
# B3: target 1 insU 3' of 15,insG 3' of 10 (mixed)
# RNA 1: B1 RNA 1
# RNA 2: B2 RNA 2 with A35G, G36A, A37G, G38U, C44G
# B4: target 1 U3A,C4A (mixed)
# RNA 1: B1 RNA 1
# RNA 2: GGGAAUGGAUCCACAUCUACGAAUUCGUACCAUAGAGAGGUUAUCCGAACACCGAGAUCGGAAGAGCACACGU
# B5: target 2 MT 5'PFS CUC 3'PFS CAU (mixed)
# RNA 1: CACCCGUGCAAAAUUGCAGGGGUCUAAAACCUUCUCCAAAUUGUUUCAUCCU
# RNA 2: GGGAAUGGAUCCACAUCUACGAAUUCCUCAGGAUGAAACAAUUUGGAGAAGCAUAGAUCGGAAGAGCACACGU
# B6: target 2 MT 5'PFS AAA 3'PFS CCU (mixed)
# RNA 1: B5 RNA 1
# RNA 2: B5 RNA 2 with C27A, U28A, C29A, A53C
# B7: target 2 MT 5'PFS AAA 3'PFS CCG (mixed)
# RNA 1: B5 RNA 1
# RNA 2: B5 RNA 2 with C27A, U28A, C29A, A53C, U54G
# B8: target 2 MT 5'PFS GCC 3'PFS UGA (mixed)
# RNA 1: B5 RNA 1
# RNA 2: B5 RNA 2 with C27G, U28C, C52U, A53G, U54A
# B9: target 2 MT 5'PFS GUG 3'PFS CUG (mixed)
# RNA 1: B5 RNA 1
# RNA 2: B5 RNA 2 with C27G, C29G, A53U, U54G
# B10: target 2 MT 5'PFS GCG 3'PFS CUU (mixed)
# RNA 1: B5 RNA 1
# RNA 2: B5 RNA 2 with C27G, U28C, C29G, A53U
# B11: target 2 MT 5'PFS UCA 3'PFS CCG (mixed)
# RNA 1: B5 RNA 1
# RNA 2: B5 RNA 2 with C27U, U28C, C29A, A53C, U54G
# B12: target 2 MT 5'PFS GAC 3'PFS AGG (mixed)
# RNA 1: B5 RNA 1
# RNA 2: B5 RNA 2 with C27G, U28A, C52A, A53G, U54G
# B13: target 2 MT 5'PFS GUG 3'PFS CUC (mixed)
# RNA 1: B5 RNA 1
# RNA 2: B5 RNA 2 with C27G, C29G, A53U, U54C
# B14: target 2 MT 5'PFS CAC 3'PFS AUC (mixed)
# RNA 1: B5 RNA 1
# RNA 2: B5 RNA 2 with U28A, C52A, A53U, U54C
# B15: target 2 MT 5'PFS UGG 3'PFS AAU (mixed)
# RNA 1: B5 RNA 1
# RNA 2: B5 RNA 2 with C27U, U28G, C29G, C52A
# B16: target 2 MT 5'PFS GUG 3'PFS CUA (mixed)
# RNA 1: B5 RNA 1
# RNA 2: B5 RNA 2 with C27G, C29G, A53U, U54A
# B17: target 2 MT 5'PFS GAC 3'PFS AGA (mixed)
# RNA 1: B5 RNA 1
# RNA 2: B5 RNA 2 with C27G, U28A, C52A, A53G, U54A
# B18: target 2 MT 5'PFS AAU 3'PFS UCU (mixed)
# RNA 1: B5 RNA 1
# RNA 2: B5 RNA 2 with C27A, U28A, C29U, C52U, A53C
# B19: target 2 MT 5'PFS GGU 3'PFS AAU (mixed)
# RNA 1: B5 RNA 1
# RNA 2: B5 RNA 2 with C27G, U28G, C29U, C52A
# B20: target 2 MT 5'PFS UAC 3'PFS AUA (mixed)
# RNA 1: B5 RNA 1
# RNA 2: B5 RNA 2 with C27U, U28A, C52A, A53U, U54A
# B21: target 2 MT 5'PFS AAU 3'PFS UCC (mixed)
# RNA 1: B5 RNA 1
# RNA 2: B5 RNA 2 with C27A, U28A, C29U, C52U, A53C, U54C
# B22: target 2 MT 5'PFS UCA 3'PFS CCU (mixed)
# RNA 1: B5 RNA 1
# RNA 2: B5 RNA 2 with C27U, U28C, C29A, A53C
# B23: target 2 MT 5'PFS UCA 3'PFS CCA (mixed)
# RNA 1: B5 RNA 1
# RNA 2: B5 RNA 2 with C27U, U28C, C29A, A53C, U54A
# B24: target 2 MT 5'PFS UAU 3'PFS UAU (mixed)
# RNA 1: B5 RNA 1
# RNA 2: B5 RNA 2 with C27U, U28A, C29U, C52U
# B25: target 2 MT 5'PFS AAA 3'PFS CCA (mixed)
# RNA 1: B5 RNA 1
# RNA 2: B5 RNA 2 with C27A, U28A, C29A, A53C, U54A
# B26: target 2 MT 5'PFS AAG 3'PFS AAU (mixed)
# RNA 1: B5 RNA 1
# RNA 2: B5 RNA 2 with C27A, U28A, C29G, C52A
# B27: target 2 MT 5'PFS GAC 3'PFS AGC (mixed)
# RNA 1: B5 RNA 1
# RNA 2: B5 RNA 2 with C27G, U28A, C52A, A53G, U54C
# B28: target 2 MT 5'PFS GCG 3'PFS CUC (mixed)
# RNA 1: B5 RNA 1
# RNA 2: B5 RNA 2 with C27G, U28C, C29G, A53U, U54C
# B29: target 2 MT 5'PFS UGG 3'PFS CCG (mixed)
# RNA 1: B5 RNA 1
# RNA 2: B5 RNA 2 with C27U, U28G, C29G, A53C, U54G
# B30: target 2 MT 5'PFS GAC 3'PFS AGU (mixed)
# RNA 1: B5 RNA 1
# RNA 2: B5 RNA 2 with C27G, U28A, C52A, A53G
# B31: target 2 MT 5'PFS UAC 3'PFS AUC (mixed)
# RNA 1: B5 RNA 1
# RNA 2: B5 RNA 2 with C27U, U28A, C52A, A53U, U54C
# B32: target 2 MT 5'PFS CUU 3'PFS AUA (mixed)
# RNA 1: B5 RNA 1
# RNA 2: B5 RNA 2 with C29U, C52A, A53U, U54A
# B33: target 2 MT 5'PFS GCC 3'PFS UGC (mixed)
# RNA 1: B5 RNA 1
# RNA 2: B5 RNA 2 with C27G, U28C, C52U, A53G, U54C
# B34: target 2 MT 5'PFS UAC 3'PFS AUU (mixed)
# RNA 1: B5 RNA 1
# RNA 2: B5 RNA 2 with C27U, U28A, C52A, A53U
# B35: target 2 MT 5'PFS UAC 3'PFS AUG (mixed)
# RNA 1: B5 RNA 1
# RNA 2: B5 RNA 2 with C27U, U28A, C52A, A53U, U54G
# B36: target 2 MT 5'PFS UGU 3'PFS AUU (mixed)
# RNA 1: B5 RNA 1
# RNA 2: B5 RNA 2 with C27U, U28G, C29U, C52A, A53U
# B37: target 2 MT 5'PFS CCU 3'PFS CCA (mixed)
# RNA 1: B5 RNA 1
# RNA 2: B5 RNA 2 with U28C, C29U, A53C, U54A
# B38: target 2 MT 5'PFS CAC 3'PFS AUG (mixed)
# RNA 1: B5 RNA 1
# RNA 2: B5 RNA 2 with U28A, C52A, A53U, U54G
# Molecular target: T1, EsCas13d, nuclease-dead
# Assay: crRNA (strand 1, pre-loaded); Mg2+; 40 mM Tris-HCl pH 7.5, 150 mM NaCl, 6 mM MgCl2, 1 mM DTT, 0.1% Tween-20, 0.2 mg/ml BSA; 25 C; 10 min per concentration, then washed
# Details: tags: His6-TwinStrep-SUMO cleaved; N-terminal SNAP kept (SNAP-Surface 488); label: 3' end held by stalled T7 RNA polymerase
row,Binder,Kd [nM]
1,B1,19.8 ± 2.5
2,B2,40 ± 4
3,B3,21.6 ± 2.9
4,B4,8.5 ± 0.9
5,B5,1.82 ± 0.19
6,B6,34 ± 13
7,B7,5.7 ± 0.9
8,B8,17 ± 5
9,B9,10.1 ± 0.7
10,B10,24 ± 6
11,B11,5 ± 0.9
12,B12,9.5 ± 0.8
13,B13,21.4 ± 2
14,B14,2 ± 0.4
15,B15,5.9 ± 0.7
16,B16,8.5 ± 0.7
17,B17,16 ± 6
18,B18,10.7 ± 2
19,B19,12.4 ± 2.2

row,Binder,Kd [nM]
1,B20,4.9 ± 0.7
2,B21,11.8 ± 1.9
3,B22,~30
4,B23,10 ± 4
5,B24,35 ± 8
6,B25,10 ± 2.5
7,B26,3.1 ± 0.5
8,B27,9.3 ± 1.3
9,B28,21 ± 4
10,B29,8.6 ± 0.8
11,B30,~43
12,B31,7 ± 1.7
13,B32,4.7 ± 0.7
14,B33,10.9 ± 1.7
15,B34,9.3 ± 2.9
16,B35,6.8 ± 1.4
17,B36,11.9 ± 1.7
18,B37,1.72 ± 0.2
19,B38,1.4 ± 0.21
